Patent US6932973B2, “Peptides which stimulate the expression of the cytokines of inflammation and promote tissue regeneration” (Centre National de la Recherche Scientifique—CNRS, priority 1999, dated 2005)
“Also recorded” adds a separate entry of the source. Where two headings read alike, the source gives them in different places.

Experiments:
[1] = system: PBMCs treated by tetanus toxin
[2] = system: cytokines of inflammation (TNF-alpha, IL-1, IL-6); assay: Expression/production of the cytokines of inflammation; assay type: cell-based, human
soleus muscle = assay type: in vivo, Wistar rat; conditions: 1 μg injected in 50 μl into crushed rat soleus, 4 days
[3] = system: human mononucleated cells of the peripheral blood (PBMCs); assay: Incorporation of tritiated thymidine in PBMCs (proliferation); assay type: cell-based; conditions: for activation response of PBMCs compared to the HARP protein: 1 ng/ml HARP, 1 μg/ml peptides (FIG. 6)
Protocol: The PBMCs were cultured for 7 days in RPMI culture medium containing 10% fetal calf serum in the absence of or in the presence of 1 ng/ml HARP protein or 1 μg/ml of peptides 1 or 2. The incorporation of tritiated thymidine was determined as described above.
Human mononucleated cells originating from different healthy donors were isolated from peripheral blood after centrifugation on a Ficoll-Hypaque pad (Pharmacia Biotech) in accordance with the manufacturer's instructions. The cells were washed then cultured in RPMI 1640 medium supplemented by 10% heat-inactivated fetal calf serum (56° C., 30 min), 100 units/ml of penicillin and 100 μg/ml of streptomycin. The cells were inoculated at the rate of 10^6 cells per ml in a 96-well (round bottoms) culture plate (Costar). They were cultured for 7 days in the presence or not of human recombinant HARP protein produced in E. coli at the concentration of 100 ng/ml. In the last 18 hours of culture, 1 μCi of tritiated thymidine was added to each of the wells. The radioactivity incorporated in the cell nuclei was then measured using a scintillation counter.

IL-6 = assay: Expression of IL-6 by PBMCs (ELISA); assay type: cell-based, human
Protocol: (§1) Quantitative determination of these cytokines was performed using an ELISA test from R&D.
Quantitative determination of these cytokines was performed after 7 days of incubation using an ELISA test from R&D.
(§2) The cells were isolated from peripheral blood of normal subjects (blood donors) and collected in a Vacutainer tube containing EDTA. Mononucleated cells were separated by ficoll gradient, counted and adjusted to 10^6 per ml. The cells were incubated for 3 or 7 days at 37° C. in humid atmosphere with 5% CO2 in the presence of variable concentrations of HARP ranging from 1 to 1000 ng/ml or other peptides which are mentioned in the legends of the figures.

HUVEC cells = assay: Mitogenic activity on HUVEC cells (cell counting); assay type: cell-based; conditions: wells coated with 100 ng/ml, 72 hours of culture, triplicate
Protocol: The cells used were HUVEC cells (Clonetics) used between passages 1 to 5. Each of the wells of a 48-well culture plate (Costar) was incubated for 1 night at 4° C. with a solution of HARP (100 ng/ml), of purified HARP peptide (100 ng/ml) or solely the negative control buffer. After rinsing the wells with a PBS solution, the cells were inoculated at the rate of 2×10^4 cells per cm^2 in the DMEM culture medium containing 2% of fetal calf serum. Each quantitative determination was performed in triplicate.
Induction of cellular proliferation was assessed by counting the cells after 72 hours of culture.

IL-2 = IL-2 levels after incubation of PBMCs with HARP; assay type: cell-based, human; conditions: after incubation of PBMCs with HARP factor
IL-1β = assay: Expression of IL-1 by PBMCs (ELISA); assay type: cell-based, human; conditions: HARP 1 to 1000 ng/ml, 3 or 7 days
Protocol: as §1, §2

syndecan-3 = syndecan-3 (Rattus norvegicus, UniProt P33671); conditions: read-out: apparent Kd; cited from earlier work
TNF-α = assay: Expression of TNF-α by PBMCs (ELISA); assay type: cell-based, human; conditions: HARP 1 to 1000 ng/ml, 3 or 7 days
Protocol: as §1, §2

phosphacan = phosphacan (Rattus norvegicus, UniProt Q62656); conditions: cited from earlier work
[4] = system: lymphoid cells (PBMC culture); assay: Determination of the amplified lymphoid cell population in a PBMC culture; assay type: cell-based, human; conditions: HARP 1 μg/ml, PBMC culture 5 days
Protocol: as §2, with “5” for “3 or 7”, “of” for “of variable concentrations of”, “HARP” for “HARP ranging from 1 to 1000 ng/ml”, “peptides at concentrations” for “peptides”, “each” for “the legends”, “Examples described.” for “figures.”
Table II presents the effects of the HARP molecule tested at a concentration of 1 μg/ml on the proliferation of lymphoid cells.

NIH 3T3 cells = conditions: read-out: Kd of strong affinity HARP binding sites; cited from earlier work
[5] = system: PBMCs treated by an anti-CD3
[6] = added to PBMCs, result not shown
[7] = peptides, 7 days of incubation (FIG. 10)
[8] = 7 days, anti-CD3 1/100, HARP 1 ng/ml

Sequence of phosphacan (Q62656 25-1616 isoform Q62656-3 limits assumed): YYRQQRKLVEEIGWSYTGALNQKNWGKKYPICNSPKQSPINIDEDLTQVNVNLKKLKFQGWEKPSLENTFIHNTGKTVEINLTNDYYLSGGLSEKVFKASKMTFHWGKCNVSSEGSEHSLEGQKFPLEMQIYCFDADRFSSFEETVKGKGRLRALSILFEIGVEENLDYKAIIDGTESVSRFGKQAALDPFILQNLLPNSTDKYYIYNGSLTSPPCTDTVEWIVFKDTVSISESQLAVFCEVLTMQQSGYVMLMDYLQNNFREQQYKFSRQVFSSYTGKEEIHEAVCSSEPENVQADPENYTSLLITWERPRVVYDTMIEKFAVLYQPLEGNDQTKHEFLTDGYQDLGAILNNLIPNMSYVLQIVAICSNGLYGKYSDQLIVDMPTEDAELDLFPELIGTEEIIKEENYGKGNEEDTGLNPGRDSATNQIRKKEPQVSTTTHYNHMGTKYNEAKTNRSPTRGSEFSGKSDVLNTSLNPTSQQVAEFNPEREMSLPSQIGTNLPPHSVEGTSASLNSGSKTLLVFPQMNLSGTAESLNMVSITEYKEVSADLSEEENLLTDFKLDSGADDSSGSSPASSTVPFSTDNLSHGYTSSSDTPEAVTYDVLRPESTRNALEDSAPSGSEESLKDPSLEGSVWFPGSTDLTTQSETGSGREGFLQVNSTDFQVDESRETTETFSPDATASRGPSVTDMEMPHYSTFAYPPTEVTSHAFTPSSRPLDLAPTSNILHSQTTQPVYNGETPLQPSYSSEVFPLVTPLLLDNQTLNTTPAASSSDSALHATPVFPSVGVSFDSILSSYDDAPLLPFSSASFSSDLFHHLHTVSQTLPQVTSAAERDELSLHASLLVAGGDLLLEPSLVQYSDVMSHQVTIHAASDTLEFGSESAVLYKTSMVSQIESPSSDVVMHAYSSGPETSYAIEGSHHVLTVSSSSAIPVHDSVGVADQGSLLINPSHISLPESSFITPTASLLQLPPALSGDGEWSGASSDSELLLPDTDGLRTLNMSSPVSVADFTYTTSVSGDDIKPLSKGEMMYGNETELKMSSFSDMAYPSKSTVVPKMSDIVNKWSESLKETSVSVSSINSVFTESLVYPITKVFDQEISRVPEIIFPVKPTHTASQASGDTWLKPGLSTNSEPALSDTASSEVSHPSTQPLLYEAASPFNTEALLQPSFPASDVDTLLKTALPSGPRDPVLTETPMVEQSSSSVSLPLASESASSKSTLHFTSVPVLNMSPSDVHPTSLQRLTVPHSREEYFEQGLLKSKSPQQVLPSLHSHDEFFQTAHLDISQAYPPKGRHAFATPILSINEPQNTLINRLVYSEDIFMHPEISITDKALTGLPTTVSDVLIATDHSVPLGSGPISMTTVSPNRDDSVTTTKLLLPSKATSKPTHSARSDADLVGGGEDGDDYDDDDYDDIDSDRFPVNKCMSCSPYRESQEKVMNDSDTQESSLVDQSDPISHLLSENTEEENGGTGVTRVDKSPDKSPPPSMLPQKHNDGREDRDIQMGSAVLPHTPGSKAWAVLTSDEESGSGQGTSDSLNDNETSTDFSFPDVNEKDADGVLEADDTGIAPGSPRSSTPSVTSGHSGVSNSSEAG
Sequence of syndecan-3 (P33671 45-442): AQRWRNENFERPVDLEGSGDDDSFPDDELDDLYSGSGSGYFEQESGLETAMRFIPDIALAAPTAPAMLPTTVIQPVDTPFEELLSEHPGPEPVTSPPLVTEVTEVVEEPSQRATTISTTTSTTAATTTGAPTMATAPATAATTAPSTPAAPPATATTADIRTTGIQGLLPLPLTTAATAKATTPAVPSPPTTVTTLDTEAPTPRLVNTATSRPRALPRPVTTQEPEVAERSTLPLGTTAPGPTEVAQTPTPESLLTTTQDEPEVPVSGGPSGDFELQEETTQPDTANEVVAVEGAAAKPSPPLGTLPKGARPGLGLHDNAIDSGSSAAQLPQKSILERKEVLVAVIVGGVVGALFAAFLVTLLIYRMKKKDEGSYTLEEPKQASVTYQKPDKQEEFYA

Molecule: tetanus toxin [reference compound]
- incorporated tritiated thymidine [1]: 43,000±500 cpm
- stimulation of incorporation of tritiated thymidine in relation to the control [1]: 71 times

Molecule: angiogenin: molecule presenting a homologous protein domain [reference compound]
- expression of the inflammatory cytokines [2, 6]: Augmentation of the expression

Molecule: NH2-AEAGKKEKPEKKVKKSDCGEW-COOH (H-AEAGKKEKPEKKVKKSDCGEW-OH) [Peptide 1]
- number of mononucleated cells in treated muscle versus peptide 2 or PBS (soleus muscle): much higher
- activation response of PBMCs compared to the HARP protein ([3]; 7 days): close to half that of HARP
- activation response of PBMCs compared to the control ([3]; 7 days, 1 μg/ml peptide (FIG. 6)): more than two times higher
- expression of IL-6 (IL-6; [7]): capable of stimulating the expression of IL-6

Molecule: NH2-AESKKKKKEGKKQEKMLD-COOH (H-AESKKKKKEGKKQEKMLD-OH) [Peptide 2, peptide corresponding to the terminal COOH part of HARP; 18 amino acids]
- activation response of PBMCs compared to the HARP protein ([3]; 7 days): close to two times higher
- expression of IL-6 (IL-6; [7]): capable of stimulating the expression of IL-6

Molecule: GKKEKPEKKVKKSD [HARP peptide, N terminal peptide (amino acids 1-14) of human HARP obtained by recombination in a eukaryote expression system]
- Number of cells (HUVEC cells): 12,000 ± 14,000

B1: MK: protein that exhibits 50% homology in amino acids with HARP (protein, UniProt P21741 21-143, looked up)
Midkine: VAKKKDKVKKGGPGSECAEWAWGPCTPSSKDCGVGFREGTCGAQTQRIRCRVPCNWKKEFGADCKYKFENWGACDGGTGTKVRQGTLKKARYNAQCQETIRVTKPCTPKTKAKAKAKKGKGKD
- stimulation of tritiated thymidine incorporation in PBMCs ([3]; MK 0.1 to 500 ng/ml): no induction; also recorded: No stimulation

B2: HARP: angiogenic growth factor; human recombinant HARP protein produced in E. coli (protein, UniProt P21246 33-168, looked up)
Pleiotrophin: GKKEKPEKKVKKSDCGEWQWSVCVPTSGDCGLGTREGTRTGAECKQTMKTQRCKIPCNWKKQFGAECKYQFQAWGECDLNTALKTRTGSLKRALHNAECQKTVTISKPCGKLTKPKPQAESKKKKKEGKKQEKMLD
- cell mortality [1]: high cell mortality
- incorporated tritiated thymidine ([1]; 7 days): 3500±200 cpm
- stimulation of incorporation of tritiated thymidine in relation to the control ([1]; 7 days): 5.8 times
- expression of the inflammatory cytokines ([2]; HARP molecule denatured): No expression
- stimulation of the production of cytokines of inflammation ([2]; in vitro and in vivo): more than 100 times
- IL-2 levels (IL-2): no increase
- cell death (HIV; HARP 100 ng/ml, PBMCs from an AIDS patient): noteworthy cell death
- HARP concentration at which production of viral antigen p24 is maximal (HIV; PBMCs from an AIDS patient (CD4<200/mm^3), 3 days, HARP 0.1-100 ng/ml): 1 ng/mL
- concentration at which active on the proliferation of lymphocytes [3]: ~10 pM
- increase in the number of cells in relation to the untreated control ([3]; HARP 100 ng/ml, experiment no. 7): 2.9 times
- HARP concentration at which maximum effect is attained ([3]; dose-response 0.1 to 500 ng/ml): 1 ng/mL
- expression of IL-1β (IL-1β): capable of inducing in a dose-dependent manner
- Kd (syndecan-3): 0.8 nM
- expression of TNF-α (TNF-α): capable of inducing in a dose-dependent manner
- expression of IL-6 (IL-6; HARP 1 to 1000 ng/ml, 3 or 7 days): capable of inducing in a dose-dependent manner
- Kd (phosphacan; read-out: Kd, binding sites of strong affinity): 0.25 nM
- Kd (phosphacan; read-out: Kd, binding sites of weak affinity): 3 nM
- Number of cells (HUVEC cells): 129,000 ± 26,000
- CCD2 positive cells [4]: 95%
- CCD4+ CD45RA+ cells [4]: 15%
- CCD4+ CD45RO+ cells [4]: 49%
- CCD4 positive cells [4]: 68%
- CCD8 positive cells [4]: 22%
- CCD16/56 positive cells [4]: 18%
- CCD19 positive cells [4]: 4%
- CCD25 positive cells [4]: 47%
- CCD45RA positive cells [4]: 34%
- CCD45RO positive cells [4]: 64%
- Variation of CCD4+ CD45RA+ versus control [4]: −31%
- Variation of CCD4+ CD45RO+ versus control [4]: +133%
- Variation of CCD45RO versus control [4]: +113%
- RA/RO (CCD4+ CD45RA+ / CCD4+ CD45RO+) ([4]; CD4+ cells): 0.3 ratio
- RA/RO (CCD45RA / CCD45RO) ([4]; all cells): 0.5 ratio
- Kd (NIH 3T3 cells): 0.6 nM
- incorporated tritiated thymidine [5, 8]: 3500 cpm
- stimulation of incorporation of tritiated thymidine in relation to the control [5, 8]: 5.8 times
- incorporation of thymidine ([5]; HARP 10 and 100 ng/ml in the presence of anti-CD3): a weaker and a very low incorporation
- cellular mortality ([5]; HARP alone at 10 and 100 ng/ml): not seen

B3: tat protein: molecule presenting a homologous protein domain (protein, UniProt P04608 1-86, looked up)
Protein Tat: MEPVDPRLEPWKHPGSQPKTACTNCYCKKCCFHCQVCFITKALGISYGRKKRRQRRRAHQNSQTHQASLSKQPTSQPRGDPTGPKE
- expression of the inflammatory cytokines [2, 6]: Augmentation of the expression
